B1: CYTB21 (antibody, human IgG1, kappa, V domains shown)
VH: EVQLVQSGAEVKEPGESLKISCKNSGYSFTNYWVGWVRQMPGKGLEWMGIIYPGDSDTRYSPSFQGQVTISADKSINTAYLQWSSLKASDTAMYYCGRLTMFRGIIIGYFDYWGQGTLVTVSS
VL: EIVLTQSPATLSLSPGERATLSCRASQSVSSYLAWYQQKPGQAPRLLIYDASNRATGIPARFSGSGSGTDFTLTISSLEPEDFAVYYCQQRSNWPWTFGQGTKVEIKR
notes: Control, Format E: anti-NKG2D IgG1 (H6/L6) without IL-15 components; also called CYB21; anti-NKG2D IgG1
B2: Human IL-15R beta/CD122 Protein, His Tag (Acro Biosystems CD2-H5221) (receptor, UniProt P14784 27-239, looked up)
chain: AVNGTSQFTCFYNSRANISCVWSQDGALQDTSCQVHAWPDRRRWNQTCELLPVSQASWACNLILGAPDSQKLTTVDIVTLRVLCREGVRWRVMAIQDFKPFENLRLMAPISLQVVHVETHRCNISWEISQASHYFERHLEFEARTLSPGHTWEEAPLLTLKQKQEWICLETLTPDTQYEFQVRVKPLQGEFTTWSPWSQPLAFRTKPAALGKD
notes: Bought recombinant protein with a His tag; also called Human IL-15Rβ protein; IL-15 receptor beta-His
B3: Human his-tagged NKG2D/CD314 (Acro Biosystems, NKD-H5245) (receptor, UniProt P26718 78-216, looked up)
chain: FLNSLFNQEVQIPLTESYCGPCPKNWICYKNNCYQFFDESKNWYESQASCMSQNASLLKVYSKEDQDLLKLVKSYHWMGLVHIPTNGSWQWEDGSILSPNLLTIIEMQKGDCALYASSFKGYIENCSTPNTYICMQRTV
notes: Bought recombinant protein with a His tag; also called Human NKG2D-His protein; NKG2D-His

How the values were obtained:
[1] = target: B3; assay: SPR (Biacore), molecule captured on anti-human IgG Fc chip, antigen as analyte, 1:1 Langmuir fit
Experimental: (§1) In brief, the test molecules were first immobilized on a goat anti-human IgG (Fc specific) antibody plated on a Biacore CM5 Series S sensor chip (CFJB1172, Cytiva Cat No. 29149603) by injection at 5 nM at flow rate 30 ul/min. […] The quality of the fits was assessed by visual inspection.

CYTB29 [2] = target: T1, CYTB29; assay: SPR avidity format, antigen immobilised on CM5 chip, test molecule injected as analyte
T1 construct: Comparator, Format G: three chains, monovalent for NKG2D (H5/L5) and IL-15 receptor beta; wild-type IL-15
Text: (§2) In order explore avidity binding effects (rather than affinity), a different assay orientation was employed. Specifically, the recombinant target human antigens (NKG2D-His or IL-15 receptor beta-His antigens, see Example 5) were immobilized on CM5 Series S sensor chips (Cytiva, catalogue number 29149603). […] Irrelevant mAbs were employed to determine and subtract background. As previously (Example 5), standard regeneration solutions and buffers were employed. To determine and compare avidity effects, test molecules were the injected in stepwise serial dilutions and sensogram responses generated.

CYTB04 = target: T2, CYTB04; assay: SPR (Biacore), molecule captured on anti-human IgG Fc chip, antigen as analyte, 1:1 Langmuir fit
T2 construct: Immunocytokine, Format A: anti-NKG2D IgG1 (H5/L5) with sushi-IL-15 at the C-terminus of each heavy chain
Experimental: as §1

CYTB29 [3] = target: T1, CYTB29; assay: as above
Experimental: as §1

CYTB30 = target: T3, CYTB30; assay: SPR avidity format, antigen immobilised on CM5 chip, test molecule injected as analyte; avidity format of Table 6 (Example 6); not the capture format of Table 5
T3 construct: Comparator, Format G: three chains, monovalent for both targets; also called CYB30
Text: as §2

| Kd [1] | Kd (CYTB29 [2]) | Kd (CYTB04) | Kd (CYTB29 [3]) | Kd (CYTB30) | Binder |
| --- | --- | --- | --- | --- | --- |
| 1.65 nM |  |  |  |  | B1 |
|  | 6.4 nM | 6 nM | 3.52 nM |  | B2 |
|  | 4.8 nM | 1.25 nM | 1.92 nM | 3830 nM | B3 |

Source: patent US20260232829A1 (CYTOSPIRE THERAPEUTICS, published 2026)
